Data set [1] has as its target T1, tyrosyl-DNA phosphodiesterase 1 (Tdp1) (Homo sapiens, UniProt Q9NUW8 1-608). The experiment in a line: SPR. In general terms: Surface plasmon resonance follows binding to a sensor surface in real time, without labels.
In data set [2] the target is T1, tyrosyl-DNA phosphodiesterase 1 (Tdp1). The experiment in a line: SPR. This is another data set of the same source.
For data set [3] the target is unchanged. Put plainly: fluorescence anisotropy. A general note: In fluorescence polarisation assays a small probe gives low polarisation when free and higher when bound to something large.
Data set [4] has the same target. The experiment in a line: fluorescence anisotropy. This is another data set of the same source.
For data set [5] the target is unchanged. Put plainly: competition.

As a reminder, the Kd is a measure of binding affinity in units of concentration. Low readings indicate a tighter complex, high ones a looser complex.

T1 sequence (Q9NUW8 whole entry): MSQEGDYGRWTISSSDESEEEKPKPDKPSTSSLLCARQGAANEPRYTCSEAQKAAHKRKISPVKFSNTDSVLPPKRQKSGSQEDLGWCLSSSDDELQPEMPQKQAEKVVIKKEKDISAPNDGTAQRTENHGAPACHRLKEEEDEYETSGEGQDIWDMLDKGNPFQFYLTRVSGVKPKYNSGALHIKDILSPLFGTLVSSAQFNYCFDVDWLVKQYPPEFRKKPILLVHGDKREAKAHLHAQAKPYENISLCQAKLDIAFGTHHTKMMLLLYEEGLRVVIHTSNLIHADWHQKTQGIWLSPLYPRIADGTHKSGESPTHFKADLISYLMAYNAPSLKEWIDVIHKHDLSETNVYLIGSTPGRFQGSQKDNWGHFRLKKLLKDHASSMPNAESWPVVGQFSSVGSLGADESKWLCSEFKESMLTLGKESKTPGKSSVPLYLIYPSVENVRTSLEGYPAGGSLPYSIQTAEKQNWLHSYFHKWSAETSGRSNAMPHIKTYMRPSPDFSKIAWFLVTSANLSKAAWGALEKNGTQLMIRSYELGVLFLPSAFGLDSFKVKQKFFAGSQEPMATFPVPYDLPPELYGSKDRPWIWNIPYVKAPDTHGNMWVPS

As for GATCTAAAAGACTT (ssDNA, 5'-phosphate; 3'-biotin) [p14B], the binding result in data set [1] was “no binding”.

GATCTAAAAGACTT (ssDNA, 5'-biotin; 3'-phosphate) [B14p] came in with a Kd in data set [2] of 57 nM.

In turn, GATCTAAAAGACTTG (ssDNA, 5'-6-FAM via phosphorothioate; 3'-OH) [F(pS)15] returned a Kd in data set [3] of 26.3 nM.

In turn, GATCTAAAAGACTT (ssDNA, 5'-6-FAM via phosphodiester; 3'-OH) [F14] had a Kd in data set [4] of 76.9 nM.

Turning to GATCTAAAAGACTTG (ssDNA, 3'-6-FAM via phosphorothioate (non-hydrolyzable)) [15(pS)F], the Kd in data set [3] was found to be 2.4 nM.

In the case of GATCTAAAAGACTT (ssDNA, 5'-6-FAM via phosphodiester; 3'-phosphate) [F14p], the Kd in data set [3] is 34.1 nM.

Consider AAGATCTAAAAGACTTAAGGATCTAAAAGACTTGAAGATCTAAAAGACTT (ssDNA, 3'-phosphate) [50p], for which, in data set [5], the binding signal is ~10 fold higher affinity than 14p.

GATCTAAAAGACTTG (ssDNA, 5'-6-FAM via phosphodiester; 3'-OH) [F15]: the Kd in data set [3] was 39.2 nM.
